Results taken from patent US20160000936A1.

Target: murine IL-17 (mouse) (UniProt Q62386)
Assay: assay not described; table titled 'Source And Binding Information'

Sequence of murine IL-17 (mouse) (Q62386 26-158 limits assumed): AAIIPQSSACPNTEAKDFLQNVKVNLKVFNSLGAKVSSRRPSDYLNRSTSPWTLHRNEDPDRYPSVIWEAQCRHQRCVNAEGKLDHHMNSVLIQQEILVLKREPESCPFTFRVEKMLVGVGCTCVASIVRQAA

IC50: 0.7 nM
Substance: anti-murine IL-17 antibody MAB421
